{
  "source": "patent US20160272683A1",
  "about": "(Novo Nordisk, published 2016)",
  "binders": {"B1": {"name": "[des1, 4G, 15Q, 21Q, 23Y, 30S, 31K(C20 diacid-gGlu), 32T, 33Y]mimylin (peptide)", "peptide": "ASGLSTAALGRLSQELHELQTYPRTETGSK([γGlu-C20 diacid])TY-NH2", "modifications": "N-terminus assumed", "SMILES": "CC(C)C[C@H](NC(=O)CNC(=O)[C@H](CO)NC(=O)[C@H](C)N)C(=O)N[C@@H](CO)C(=O)N[C@H](C(=O)N[C@@H](C)C(=O)N[C@@H](C)C(=O)N[C@@H](CC(C)C)C(=O)NCC(=O)N[C@@H](CCCNC(=N)N)C(=O)N[C@@H](CC(C)C)C(=O)N[C@@H](CO)C(=O)N[C@@H](CCC(N)=O)C(=O)N[C@@H](CCC(=O)O)C(=O)N[C@@H](CC(C)C)C(=O)N[C@@H](Cc1c[nH]cn1)C(=O)N[C@@H](CCC(=O)O)C(=O)N[C@@H](CC(C)C)C(=O)N[C@@H](CCC(N)=O)C(=O)N[C@H](C(=O)N[C@@H](Cc1ccc(O)cc1)C(=O)N1CCC[C@H]1C(=O)N[C@@H](CCCNC(=N)N)C(=O)N[C@H](C(=O)N[C@@H](CCC(=O)O)C(=O)N[C@H](C(=O)NCC(=O)N[C@@H](CO)C(=O)N[C@@H](CCCCNC(=O)CC[C@H](NC(=O)CCCCCCCCCCCCCCCCCCC(=O)O)C(=O)O)C(=O)N[C@H](C(=O)N[C@@H](Cc1ccc(O)cc1)C(N)=O)[C@@H](C)O)[C@@H](C)O)[C@@H](C)O)[C@@H](C)O)[C@@H](C)O"}, "B2": {"name": "[N-terminal(C20 diacid-gGlu), des1, 4G, 15Q, 21Q, 23Y, 30S, 31Q, 32T, 33Y]mimylin (peptide)", "peptide": "{C20 diacid-γGlu}-ASGLSTAALGRLSQELHELQTYPRTETGSQTY-NH2", "SMILES": "CC(C)C[C@H](NC(=O)CNC(=O)[C@H](CO)NC(=O)[C@H](C)NC(=O)CC[C@H](NC(=O)CCCCCCCCCCCCCCCCCCC(=O)O)C(=O)O)C(=O)N[C@@H](CO)C(=O)N[C@H](C(=O)N[C@@H](C)C(=O)N[C@@H](C)C(=O)N[C@@H](CC(C)C)C(=O)NCC(=O)N[C@@H](CCCNC(=N)N)C(=O)N[C@@H](CC(C)C)C(=O)N[C@@H](CO)C(=O)N[C@@H](CCC(N)=O)C(=O)N[C@@H](CCC(=O)O)C(=O)N[C@@H](CC(C)C)C(=O)N[C@@H](Cc1c[nH]cn1)C(=O)N[C@@H](CCC(=O)O)C(=O)N[C@@H](CC(C)C)C(=O)N[C@@H](CCC(N)=O)C(=O)N[C@H](C(=O)N[C@@H](Cc1ccc(O)cc1)C(=O)N1CCC[C@H]1C(=O)N[C@@H](CCCNC(=N)N)C(=O)N[C@H](C(=O)N[C@@H](CCC(=O)O)C(=O)N[C@H](C(=O)NCC(=O)N[C@@H](CO)C(=O)N[C@@H](CCC(N)=O)C(=O)N[C@H](C(=O)N[C@@H](Cc1ccc(O)cc1)C(N)=O)[C@@H](C)O)[C@@H](C)O)[C@@H](C)O)[C@@H](C)O)[C@@H](C)O"}, "B3": {"name": "[N-terminal(C20 diacid), des1, 4G, 15Q, 21Q, 23Y, 30S, 31G, 32T, 33Y]mimylin (peptide)", "peptide": "{C20 diacid}-ASGLSTAALGRLSQELHELQTYPRTETGSGTY-NH2", "SMILES": "CC(C)C[C@H](NC(=O)CNC(=O)[C@H](CO)NC(=O)[C@H](C)NC(=O)CCCCCCCCCCCCCCCCCCC(=O)O)C(=O)N[C@@H](CO)C(=O)N[C@H](C(=O)N[C@@H](C)C(=O)N[C@@H](C)C(=O)N[C@@H](CC(C)C)C(=O)NCC(=O)N[C@@H](CCCNC(=N)N)C(=O)N[C@@H](CC(C)C)C(=O)N[C@@H](CO)C(=O)N[C@@H](CCC(N)=O)C(=O)N[C@@H](CCC(=O)O)C(=O)N[C@@H](CC(C)C)C(=O)N[C@@H](Cc1c[nH]cn1)C(=O)N[C@@H](CCC(=O)O)C(=O)N[C@@H](CC(C)C)C(=O)N[C@@H](CCC(N)=O)C(=O)N[C@H](C(=O)N[C@@H](Cc1ccc(O)cc1)C(=O)N1CCC[C@H]1C(=O)N[C@@H](CCCNC(=N)N)C(=O)N[C@H](C(=O)N[C@@H](CCC(=O)O)C(=O)N[C@H](C(=O)NCC(=O)N[C@@H](CO)C(=O)NCC(=O)N[C@H](C(=O)N[C@@H](Cc1ccc(O)cc1)C(N)=O)[C@@H](C)O)[C@@H](C)O)[C@@H](C)O)[C@@H](C)O)[C@@H](C)O"}, "B4": {"name": "[N-terminal(C20 diacid-gGlu), des1, 4G, 15T, 21E, 23Y, 30S, 31G, 32T, 33Y]mimylin (peptide)", "peptide": "{C20 diacid-γGlu}-ASGLSTAALGRLSTELHELETYPRTETGSGTY-NH2", "SMILES": "CC(C)C[C@H](NC(=O)CNC(=O)[C@H](CO)NC(=O)[C@H](C)NC(=O)CC[C@H](NC(=O)CCCCCCCCCCCCCCCCCCC(=O)O)C(=O)O)C(=O)N[C@@H](CO)C(=O)N[C@H](C(=O)N[C@@H](C)C(=O)N[C@@H](C)C(=O)N[C@@H](CC(C)C)C(=O)NCC(=O)N[C@@H](CCCNC(=N)N)C(=O)N[C@@H](CC(C)C)C(=O)N[C@@H](CO)C(=O)N[C@H](C(=O)N[C@@H](CCC(=O)O)C(=O)N[C@@H](CC(C)C)C(=O)N[C@@H](Cc1c[nH]cn1)C(=O)N[C@@H](CCC(=O)O)C(=O)N[C@@H](CC(C)C)C(=O)N[C@@H](CCC(=O)O)C(=O)N[C@H](C(=O)N[C@@H](Cc1ccc(O)cc1)C(=O)N1CCC[C@H]1C(=O)N[C@@H](CCCNC(=N)N)C(=O)N[C@H](C(=O)N[C@@H](CCC(=O)O)C(=O)N[C@H](C(=O)NCC(=O)N[C@@H](CO)C(=O)NCC(=O)N[C@H](C(=O)N[C@@H](Cc1ccc(O)cc1)C(N)=O)[C@@H](C)O)[C@@H](C)O)[C@@H](C)O)[C@@H](C)O)[C@@H](C)O)[C@@H](C)O"}, "B5": {"name": "[N-terminal(C20 diacid-gGlu), des1, 4G, 15E, 21Q, 23Y, 30S, 31G, 32T, 33Y]mimylin (peptide)", "peptide": "{C20 diacid-γGlu}-ASGLSTAALGRLSEELHELQTYPRTETGSGTY-NH2", "SMILES": "CC(C)C[C@H](NC(=O)CNC(=O)[C@H](CO)NC(=O)[C@H](C)NC(=O)CC[C@H](NC(=O)CCCCCCCCCCCCCCCCCCC(=O)O)C(=O)O)C(=O)N[C@@H](CO)C(=O)N[C@H](C(=O)N[C@@H](C)C(=O)N[C@@H](C)C(=O)N[C@@H](CC(C)C)C(=O)NCC(=O)N[C@@H](CCCNC(=N)N)C(=O)N[C@@H](CC(C)C)C(=O)N[C@@H](CO)C(=O)N[C@@H](CCC(=O)O)C(=O)N[C@@H](CCC(=O)O)C(=O)N[C@@H](CC(C)C)C(=O)N[C@@H](Cc1c[nH]cn1)C(=O)N[C@@H](CCC(=O)O)C(=O)N[C@@H](CC(C)C)C(=O)N[C@@H](CCC(N)=O)C(=O)N[C@H](C(=O)N[C@@H](Cc1ccc(O)cc1)C(=O)N1CCC[C@H]1C(=O)N[C@@H](CCCNC(=N)N)C(=O)N[C@H](C(=O)N[C@@H](CCC(=O)O)C(=O)N[C@H](C(=O)NCC(=O)N[C@@H](CO)C(=O)NCC(=O)N[C@H](C(=O)N[C@@H](Cc1ccc(O)cc1)C(N)=O)[C@@H](C)O)[C@@H](C)O)[C@@H](C)O)[C@@H](C)O)[C@@H](C)O"}, "B6": {"name": "[N-terminal(C20 diacid-gGlu), des1, 9V, 15Q, 21Q, 23Y, 30S, 31G, 32T, 33Y]mimylin (peptide)", "peptide": "{C20 diacid-γGlu}-ASELSTAVLGRLSQELHELQTYPRTETGSGTY-NH2", "SMILES": "CC(C)C[C@H](NC(=O)[C@H](CCCNC(=N)N)NC(=O)CNC(=O)[C@H](CC(C)C)NC(=O)[C@@H](NC(=O)[C@H](C)NC(=O)[C@@H](NC(=O)[C@H](CO)NC(=O)[C@H](CC(C)C)NC(=O)[C@H](CCC(=O)O)NC(=O)[C@H](CO)NC(=O)[C@H](C)NC(=O)CC[C@H](NC(=O)CCCCCCCCCCCCCCCCCCC(=O)O)C(=O)O)[C@@H](C)O)C(C)C)C(=O)N[C@@H](CO)C(=O)N[C@@H](CCC(N)=O)C(=O)N[C@@H](CCC(=O)O)C(=O)N[C@@H](CC(C)C)C(=O)N[C@@H](Cc1c[nH]cn1)C(=O)N[C@@H](CCC(=O)O)C(=O)N[C@@H](CC(C)C)C(=O)N[C@@H](CCC(N)=O)C(=O)N[C@H](C(=O)N[C@@H](Cc1ccc(O)cc1)C(=O)N1CCC[C@H]1C(=O)N[C@@H](CCCNC(=N)N)C(=O)N[C@H](C(=O)N[C@@H](CCC(=O)O)C(=O)N[C@H](C(=O)NCC(=O)N[C@@H](CO)C(=O)NCC(=O)N[C@H](C(=O)N[C@@H](Cc1ccc(O)cc1)C(N)=O)[C@@H](C)O)[C@@H](C)O)[C@@H](C)O)[C@@H](C)O"}},
  "note": "Numbered stars: 1 amine (or outer) side, 2 acyl side, 3 side chain; on linkers, the order of the positions; unused ones are H or OH. Side chains are listed from the residue outwards. Ends that are not written are not given here. * marks the point of attachment. C20 diacid = O=C(O)CCCCCCCCCCCCCCCCCCC(=O)*; γGlu = O=C(O)[C@H](CCC(=O)[*:2])N[*:1]",
  "data": [
    {"biological_target": "T1, human calcitonin receptor (human, UniProt P30988 25-474)", "T1 sequence (looked up)": "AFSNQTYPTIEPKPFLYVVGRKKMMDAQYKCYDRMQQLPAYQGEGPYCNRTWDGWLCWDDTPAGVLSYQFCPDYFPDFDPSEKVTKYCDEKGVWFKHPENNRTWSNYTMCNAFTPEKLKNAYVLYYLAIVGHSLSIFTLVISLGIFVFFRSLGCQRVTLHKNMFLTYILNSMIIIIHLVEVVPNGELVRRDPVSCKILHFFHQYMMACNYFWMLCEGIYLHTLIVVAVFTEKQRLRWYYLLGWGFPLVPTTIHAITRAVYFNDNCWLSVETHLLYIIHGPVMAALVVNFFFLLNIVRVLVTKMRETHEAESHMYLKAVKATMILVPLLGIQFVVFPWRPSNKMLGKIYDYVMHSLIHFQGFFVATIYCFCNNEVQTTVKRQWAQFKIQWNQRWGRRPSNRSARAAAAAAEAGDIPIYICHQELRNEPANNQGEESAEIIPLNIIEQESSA", "assay": "cell-based or functional assay", "units": {"hCTR funct. EC50 (pM)": "pM"}, "values": [
      {"binder": "B1", "hCTR funct. EC50 (pM)": 36},
      {"binder": "B2", "hCTR funct. EC50 (pM)": 25},
      {"binder": "B3", "hCTR funct. EC50 (pM)": 24},
      {"binder": "B4", "hCTR funct. EC50 (pM)": 18},
      {"binder": "B5", "hCTR funct. EC50 (pM)": 21},
      {"binder": "B6", "hCTR funct. EC50 (pM)": 60}
    ]},
    {"biological_target": "T2, human amylin 3(a) receptor (human calcitonin receptor co-expressed with RAMP-3) (human, UniProt P30988 25-474; O60896 24-148, limits assumed)", "T2 sequence (looked up) 1": "T1 sequence (looked up)", "T2 sequence (looked up) 2": "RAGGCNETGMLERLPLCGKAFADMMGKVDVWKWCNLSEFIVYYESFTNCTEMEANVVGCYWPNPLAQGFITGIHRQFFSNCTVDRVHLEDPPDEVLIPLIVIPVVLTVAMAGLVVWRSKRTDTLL", "assay": "cell-based or functional assay", "units": {"hAmylin-R funct. EC50 (pM)": "pM"}, "values": [
      {"binder": "B1", "hAmylin-R funct. EC50 (pM)": 68},
      {"binder": "B2", "hAmylin-R funct. EC50 (pM)": 37},
      {"binder": "B3", "hAmylin-R funct. EC50 (pM)": 22},
      {"binder": "B4", "hAmylin-R funct. EC50 (pM)": 54},
      {"binder": "B5", "hAmylin-R funct. EC50 (pM)": 36},
      {"binder": "B6", "hAmylin-R funct. EC50 (pM)": 76}
    ]}
  ]
}
